The results in this text go back to patent US6512161.

In assay [1] the target is rabbit apolipoprotein B-100 (rabbit) (UniProt P17165). As to the kind of experiment: densitometry of non-reducing anti-apo(a) immunoblots, apo(a) transgenic rabbit plasma (n=3).
Assay [2] addresses either human or rabbit apoB. As to the kind of experiment: densitometry of non-reducing anti-apo(a) immunoblots, apoB/apo(a) transgenic rabbit plasma (n=3).

Sequence of UniProt P17165 (P17165 whole entry): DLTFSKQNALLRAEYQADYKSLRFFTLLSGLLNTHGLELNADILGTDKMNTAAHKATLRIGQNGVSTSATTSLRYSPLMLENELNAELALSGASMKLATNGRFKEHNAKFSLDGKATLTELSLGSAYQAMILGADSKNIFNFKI

Take human apolipoprotein(a), P08519 20-2040: in assay [1], the percent of apo(a) bound was determined as 20% and the percent of apo(a) free was found to be 80%.

In assay [2], “human apolipoprotein(a) (from UniProt P08519 20-2040)” displayed a percent of apo(a) covalently bound of 80% and a percent of apo(a) migrating as free apo(a) of 20%.
